Test results: paper PMC11766367, “Structure-Function Relationship of the β-Hairpin of Thermus thermophilus HB27 Laccase” (International Journal of Molecular Sciences, 2025)

Key:
[1] = substrate: CCn1c(=NN=c2sc3cc(S(=O)(=O)O)ccc3n2CC)sc2cc(S(=O)(=O)O)ccc21; assay: spectrophotometric oxidation assay, Michaelis-Menten fit; type: biochemical, Thermus thermophilus; settings: pH 6.0, 61.5 °C, free copper contradictory: caption says without, methods and text suggest 1 mM CuSO4 added
Description: (§1) spectrophotometric oxidation assay, Michaelis-Menten fit on Tth-Lac

[2] = substrate: COc1cc(C=NN=Cc2cc(OC)c(O)c(OC)c2)cc(OC)c1O; assay: as above; type: biochemical, Thermus thermophilus; settings: pH 6.0, 61.5 °C, free copper contradictory: caption says without, methods and text suggest 1 mM CuSO4 added
Description: as §1

[3] = substrate: COc1cccc(OC)c1O; assay: as above; type: biochemical, Thermus thermophilus; settings: pH 7.0, 61.5 °C, free copper contradictory: caption says with, methods and text suggest without, pH 7.0
Description: as §1

purified protein = substrate: COc1ccccc1O; assay: purified protein; settings: pH 6.0, 61.5 °C, free copper contradictory: caption says without, methods and text suggest 1 mM CuSO4 added

B1: Tth-Lac (Thermus thermophilus HB27; A292G/DEL293-307) (protein)
chain: QGPSFPEPKVVRSQGGLLSLKLSATPTPLALAGQRATLLTYGGSFPGPTLRVRPRDTVRLTLENRLPEPTNLHWHGLPISPKVDDPFLEIPPGESWTYEFTVPKELAGTFWYHPHLHGRVAPQLFAGLLGALVVESSLDAIPELREAEEHLLVLKDLALQGGRPAPHTPMDWMNGKEGDLVLVNGALRPTLVAQKATLRLRLLNASNARYYRLALQDHPLYLIAADGGFLEEPLEVSELLLAPGERAEVLVRLRKEGRFLLQALPYDRGGGPSRPETLLYLIAPKNPKPLPLPKALSPFPTLPAPVVTRRLVLTEDMMAARFFINGQVFDHRRVDLKGQAQTVEVWEVENQGDMDHPFHLHVHPFQVLSVGGRPFPYRAWKDVVNLKAGEVARLLVPLREKGRTVFHCHIVEHEDRGMMGVLEVG
notes: signal peptide removed, gene starts at residue 23; pET-22b(+), E. coli BL21 Gold (DE3) with CuSO4; heat step and CM-Sepharose; no tag mentioned; monomer
Km ([1]; C2Tth-Lac, pH 6.0): 940 ± 190 µM
Vmax ([1]; C2Tth-Lac, pH 6.0): 14.80 ± 1.43 µmol/mg/min
Km ([2]; C2Tth-Lac, pH 6.0): 7.2 ± 1.13 µM
Vmax ([2]; C2Tth-Lac, pH 6.0): 7.20 ± 0.46 µmol/mg/min
Km ([3]; C2Tth-Lac): 220 ± 30 µM
Vmax ([3]; C2Tth-Lac): 0.87 ± 0.4 µmol/mg/min
Km (purified protein; C2Tth-Lac): 37 ± 5 µM
Vmax (purified protein; C2Tth-Lac): 3.98 ± 0.21 µmol/mg/min

B2: Tth-Lac (Thermus thermophilus HB27; DEL292-307/G291S) (protein)
chain: QGPSFPEPKVVRSQGGLLSLKLSATPTPLALAGQRATLLTYGGSFPGPTLRVRPRDTVRLTLENRLPEPTNLHWHGLPISPKVDDPFLEIPPGESWTYEFTVPKELAGTFWYHPHLHGRVAPQLFAGLLGALVVESSLDAIPELREAEEHLLVLKDLALQGGRPAPHTPMDWMNGKEGDLVLVNGALRPTLVAQKATLRLRLLNASNARYYRLALQDHPLYLIAADGGFLEEPLEVSELLLAPGERAEVLVRLRKEGRFLLQALPYDRSGPSRPETLLYLIAPKNPKPLPLPKALSPFPTLPAPVVTRRLVLTEDMMAARFFINGQVFDHRRVDLKGQAQTVEVWEVENQGDMDHPFHLHVHPFQVLSVGGRPFPYRAWKDVVNLKAGEVARLLVPLREKGRTVFHCHIVEHEDRGMMGVLEVG
notes: as for B1
Km ([1]; C1Tth-Lac): 280 ± 60 µM
Vmax ([1]; C1Tth-Lac): 12.34 ± 0.91 µmol/mg/min
Km ([2]; C1Tth-Lac): 7.83 ± 1.35 µM
Vmax ([2]; C1Tth-Lac): 14.60 ± 0.80 µmol/mg/min
Km (purified protein; C1Tth-Lac): 45 ± 8 µM
Vmax (purified protein; C1Tth-Lac): 9.47 ± 0.46 µmol/mg/min

B3: Tth-Lac (Thermus thermophilus HB27; A304G/DEL295-303) (protein)
chain: QGPSFPEPKVVRSQGGLLSLKLSATPTPLALAGQRATLLTYGGSFPGPTLRVRPRDTVRLTLENRLPEPTNLHWHGLPISPKVDDPFLEIPPGESWTYEFTVPKELAGTFWYHPHLHGRVAPQLFAGLLGALVVESSLDAIPELREAEEHLLVLKDLALQGGRPAPHTPMDWMNGKEGDLVLVNGALRPTLVAQKATLRLRLLNASNARYYRLALQDHPLYLIAADGGFLEEPLEVSELLLAPGERAEVLVRLRKEGRFLLQALPYDRGAMGGMPQGPSRPETLLYLIAPKNPKPLPLPKALSPFPTLPAPVVTRRLVLTEDMMAARFFINGQVFDHRRVDLKGQAQTVEVWEVENQGDMDHPFHLHVHPFQVLSVGGRPFPYRAWKDVVNLKAGEVARLLVPLREKGRTVFHCHIVEHEDRGMMGVLEVG
notes: as for B1
Km ([1]; P1Tth-Lac, pH 6.0): 1090 ± 160 µM
Vmax ([1]; P1Tth-Lac, pH 6.0): 21.48 ± 1.81 µmol/mg/min
Km ([3]; P1Tth-Lac): 430 ± 60 µM
Vmax ([3]; P1Tth-Lac): 1.45 ± 0.07 µmol/mg/min
Km (purified protein; P1Tth-Lac): 49.9 ± 6 µM
Vmax (purified protein; P1Tth-Lac): 9.57 ± 0.47 µmol/mg/min

B4: Tth-Lac (Thermus thermophilus HB27) (protein)
chain: QGPSFPEPKVVRSQGGLLSLKLSATPTPLALAGQRATLLTYGGSFPGPTLRVRPRDTVRLTLENRLPEPTNLHWHGLPISPKVDDPFLEIPPGESWTYEFTVPKELAGTFWYHPHLHGRVAPQLFAGLLGALVVESSLDAIPELREAEEHLLVLKDLALQGGRPAPHTPMDWMNGKEGDLVLVNGALRPTLVAQKATLRLRLLNASNARYYRLALQDHPLYLIAADGGFLEEPLEVSELLLAPGERAEVLVRLRKEGRFLLQALPYDRGAMGMMDMGGMAHAMPQGPSRPETLLYLIAPKNPKPLPLPKALSPFPTLPAPVVTRRLVLTEDMMAARFFINGQVFDHRRVDLKGQAQTVEVWEVENQGDMDHPFHLHVHPFQVLSVGGRPFPYRAWKDVVNLKAGEVARLLVPLREKGRTVFHCHIVEHEDRGMMGVLEVG
notes: as for B1
Km ([1]; pH 6.0): 1030 ± 160 µM
Vmax ([1]; pH 6.0): 28.48 ± 1.93 µmol/mg/min
Km ([2]; pH 6.0): 6.17 ± 0.5 µM
Vmax ([2]; pH 6.0): 13.92 ± 0.31 µmol/mg/min
Km [3]: 880 ± 80 µM
Vmax [3]: 6.00 ± 0.24 µmol/mg/min
Km (purified protein): 21 ± 2 µM
Vmax (purified protein): 5.14 ± 0.11 µmol/mg/min
